Measured values reported in patent US20210388087A1 (Chugai, published 2021).
Substitutions are numbered along the chain they refer to.

B1: CE115HA000 N31I (antibody, human IgG1, kappa, L234A L235A, N297A, name in Kabat numbering)
heavy: QVQLVESGGGVVQPGRSLRLSCAASGFTFSIAWMHWVRQAPGKGLEWVAQIKAKSNNYATYYAESVKGRFTISRDDSKNSLYLQMNSLKTEDTAVYYCRYVHYGAYYGVDAWGQGTTVTVSSASTKGPSVFPLAPSSKSTSGGTAALGCLVKDYFPEPVTVSWNSGALTSGVHTFPAVLQSSGLYSLSSVVTVPSSSLGTQTYICNVNHKPSNTKVDKKVEPKSCDKTHTCPPCPAPEAAGGPSVFLFPPKPKDTLMISRTPEVTCVVVDVSHEDPEVKFNWYVDGVEVHNAKTKPREEQYASTYRVVSVLTVLHQDWLNGKEYKCKVSNKALPAPIEKTISKAKGQPREPQVYTLPPSRCELTKNQVSLSCAVKGFYPSDIAVEWESNGQPENNYKTTPPVLDSDGSFFLVSKLTVDKSRWQQGNVFSCSVMHEALHNHYTQKSLSLSPDYKDDDDK
chain: EPKSSDKTHTCPPCPAPELLGGPSVFLFPPKPKDTLMISRTPEVTCVVVDVSHEDPEVKFNWYVDGVEVHNAKTKPREEQYNSTYRVVSVLTVLHQDWLNGKEYKCKVSNKALPAPIEKTISKAKGQPREPQVCTLPPSRDELTKNQVSLWCLVKGFYPSDIAVEWESNGQPENNYKTTPPVLDSDGSFFLYSKLTVDKSRWQQGNVFSCSVMHEALHNRYTQKSLSLSP
light: DIVMTQSPLSLPVTPGEPASISCRSSQSLVHSNRNTYLHWYQQKPGQAPRLLIYKVSNRFSGVPDRFSGSGSGTDFTLKISRVEAEDVGVYYCGQGTQVPYTFGQGTKLEIKRTVAAPSVFIFPPSDEQLKSGTASVVCLLNNFYPREAKVQWKVDNALQSGNSQESVTEQDSKDSTYSLSSTLTLSKADYEKHKVYACEVTHQGLSSPVTKSFNRGEC
notes: one-arm antibody
B2: CE115HA000 N31K (antibody, human IgG1, kappa, L234A L235A, N297A, name in Kabat numbering)
heavy: B1 heavy with I31K
chain: B1 chain
light: B1 light
notes: one-arm antibody
B3: CE115HA000 N53Y (antibody, human IgG1, kappa, L234A L235A, N297A, name in Kabat numbering)
heavy: B1 heavy with I31N, N56Y
chain: B1 chain
light: B1 light
notes: one-arm antibody
B4: CE115HA000 N82aD (antibody, human IgG1, kappa, L234A L235A, N297A, name in Kabat numbering)
heavy: B1 heavy with I31N, N86D
chain: B1 chain
light: B1 light
notes: one-arm antibody
B5: CE115HA000 N54Q (antibody, human IgG1, kappa, L234A L235A, N297A, name in Kabat numbering)
heavy: B1 heavy with I31N, N57Q
chain: B1 chain
light: B1 light
notes: one-arm antibody
B6: CE115HA000 N53Q (antibody, human IgG1, kappa, L234A L235A, N297A, name in Kabat numbering)
heavy: B1 heavy with I31N, N56Q
chain: B1 chain
light: B1 light
notes: one-arm antibody
B7: CE115HA000 N54S (antibody, human IgG1, kappa, L234A L235A, N297A, name in Kabat numbering)
heavy: B1 heavy with I31N, N57S
chain: B1 chain
light: B1 light
notes: one-arm antibody
B8: CE115HA000 N31W (antibody, human IgG1, kappa, L234A L235A, N297A, name in Kabat numbering)
heavy: B1 heavy with I31W
chain: B1 chain
light: B1 light
notes: one-arm antibody
B9: CE115HA000 N31Y (antibody, human IgG1, kappa, L234A L235A, N297A, name in Kabat numbering)
heavy: B1 heavy with I31Y
chain: B1 chain
light: B1 light
notes: one-arm antibody
B10: CE115HA000 N53D (antibody, human IgG1, kappa, L234A L235A, N297A, name in Kabat numbering)
heavy: B1 heavy with I31N, N56D
chain: B1 chain
light: B1 light
notes: one-arm antibody
B11: CE115HA000 N54G (antibody, human IgG1, kappa, L234A L235A, N297A, name in Kabat numbering)
heavy: B1 heavy with I31N, N57G
chain: B1 chain
light: B1 light
notes: one-arm antibody
B12: CE115HA000 Q50I (antibody, human IgG1, kappa, L234A L235A, N297A, name in Kabat numbering)
heavy: B1 heavy with I31N, Q50I
chain: B1 chain
light: B1 light
notes: one-arm antibody
B13: CE115HA000 N31Q (antibody, human IgG1, kappa, L234A L235A, N297A, name in Kabat numbering)
heavy: B1 heavy with I31Q
chain: B1 chain
light: B1 light
notes: one-arm antibody
B14: CE115HA000 N53H (antibody, human IgG1, kappa, L234A L235A, N297A, name in Kabat numbering)
heavy: B1 heavy with I31N, N56H
chain: B1 chain
light: B1 light
notes: one-arm antibody
B15: CE115HA000 N54K (antibody, human IgG1, kappa, L234A L235A, N297A, name in Kabat numbering)
heavy: B1 heavy with I31N, N57K
chain: B1 chain
light: B1 light
notes: one-arm antibody
B16: CE115HA000 N31R (antibody, human IgG1, kappa, L234A L235A, N297A, name in Kabat numbering)
heavy: B1 heavy with I31R
chain: B1 chain
light: B1 light
notes: one-arm antibody
B17: CE115HA000 Q50K (antibody, human IgG1, kappa, L234A L235A, N297A, name in Kabat numbering)
heavy: B1 heavy with I31N, Q50K
chain: B1 chain
light: B1 light
notes: one-arm antibody
B18: CE115HA000 N53A (antibody, human IgG1, kappa, L234A L235A, N297A, name in Kabat numbering)
heavy: B1 heavy with I31N, N56A
chain: B1 chain
light: B1 light
notes: one-arm antibody
B19: CE115HA000 N54L (antibody, human IgG1, kappa, L234A L235A, N297A, name in Kabat numbering)
heavy: B1 heavy with I31N, N57L
chain: B1 chain
light: B1 light
notes: one-arm antibody
B20: CE115HA000 N54D (antibody, human IgG1, kappa, L234A L235A, N297A, name in Kabat numbering)
heavy: B1 heavy with I31N, N57D
chain: B1 chain
light: B1 light
notes: one-arm antibody
B21: CE115HA000 Q50D (antibody, human IgG1, kappa, L234A L235A, N297A, name in Kabat numbering)
heavy: B1 heavy with I31N, Q50D
chain: B1 chain
light: B1 light
notes: one-arm antibody
B22: CE115HA000 Q50E (antibody, human IgG1, kappa, L234A L235A, N297A, name in Kabat numbering)
heavy: B1 heavy with I31N, Q50E
chain: B1 chain
light: B1 light
notes: one-arm antibody
B23: CE115HA000 N53S (antibody, human IgG1, kappa, L234A L235A, N297A, name in Kabat numbering)
heavy: B1 heavy with I31N, N56S
chain: B1 chain
light: B1 light
notes: one-arm antibody
B24: CE115HA000 N53K (antibody, human IgG1, kappa, L234A L235A, N297A, name in Kabat numbering)
heavy: B1 heavy with I31N, N56K
chain: B1 chain
light: B1 light
notes: one-arm antibody
B25: CE115HA000 N54Y (antibody, human IgG1, kappa, L234A L235A, N297A, name in Kabat numbering)
heavy: B1 heavy with I31N, N57Y
chain: B1 chain
light: B1 light
notes: one-arm antibody
B26: CE115HA000 N76S (antibody, human IgG1, kappa, L234A L235A, N297A, name in Kabat numbering)
heavy: B1 heavy with I31N, N79S
chain: B1 chain
light: B1 light
notes: one-arm antibody
B27: CE115HA000 Q50A (antibody, human IgG1, kappa, L234A L235A, N297A, name in Kabat numbering)
heavy: B1 heavy with I31N, Q50A
chain: B1 chain
light: B1 light
notes: one-arm antibody
B28: CE115HA000 N53I (antibody, human IgG1, kappa, L234A L235A, N297A, name in Kabat numbering)
heavy: B1 heavy with I31N, N56I
chain: B1 chain
light: B1 light
notes: one-arm antibody
B29: CE115HA000 N53W (antibody, human IgG1, kappa, L234A L235A, N297A, name in Kabat numbering)
heavy: B1 heavy with I31N, N56W
chain: B1 chain
light: B1 light
notes: one-arm antibody
B30: CE115HA000 N31S (antibody, human IgG1, kappa, L234A L235A, N297A, name in Kabat numbering)
heavy: B1 heavy with I31S
chain: B1 chain
light: B1 light
notes: one-arm antibody
B31: CE115HA000 N54F (antibody, human IgG1, kappa, L234A L235A, N297A, name in Kabat numbering)
heavy: B1 heavy with I31N, N57F
chain: B1 chain
light: B1 light
notes: one-arm antibody
B32: CE115HA000 N54A (antibody, human IgG1, kappa, L234A L235A, N297A, name in Kabat numbering)
heavy: B1 heavy with I31N, N57A
chain: B1 chain
light: B1 light
notes: one-arm antibody
B33: CE115HA000 N53G (antibody, human IgG1, kappa, L234A L235A, N297A, name in Kabat numbering)
heavy: B1 heavy with I31N, N56G
chain: B1 chain
light: B1 light
notes: one-arm antibody

biological target: T1, CD3 epsilon homodimer protein (UniProt P07766 23-126); assay: SPR, CD3 epsilon homodimer on chip, one-arm antibody as analyte;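 further: surface plasmon resonance at 25 °C with CD3 epsilon homodimer amine-coupled to a CM4 sensor chip, antibody injected as analyte, HBS-EP+ as running buffer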
T1 construct: also called CD3 (CD3 epsilon)
T1 sequence (P07766 23-126): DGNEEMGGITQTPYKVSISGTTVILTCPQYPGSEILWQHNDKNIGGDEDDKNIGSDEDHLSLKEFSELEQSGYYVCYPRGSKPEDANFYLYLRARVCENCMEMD

| Binder | KD ratio (KD of CE115HA000/KD of altered form) |
| --- | --- |
| B1 | 0.62 |
| B2 | 0.97 |
| B3 | 0.94 |
| B4 | 0.56 |
| B5 | 0.8 |
| B6 | 1.05 |
| B7 | 0.57 |
| B8 | 1.07 |
| B9 | 1.1 |
| B10 | 0.55 |
| B11 | 0.84 |
| B12 | 1.21 |
| B13 | 0.94 |
| B14 | 0.55 |
| B15 | 0.82 |
| B16 | 0.98 |
| B17 | 0.71 |

| Binder | KD ratio (KD of CE115HA000/KD of altered form) |
| --- | --- |
| B18 | 0.55 |
| B19 | 0.91 |
| B20 | 0.59 |
| B21 | 75.4 |
| B22 | 16700 |
| B23 | 0.59 |
| B24 | 0.79 |
| B25 | 1.03 |
| B26 | 0.84 |
| B27 | 22.6 |
| B28 | 0.57 |
| B29 | 0.69 |
| B30 | 0.67 |
| B31 | 0.97 |
| B32 | 0.58 |
| B33 | 0.95 |
